# Results: patent publication US20200317768A1 (published 2020)
# T1: Human latent myostatin (human, UniProt O14793 25-266; O14793 267-375)
# T1 construct: also called human myostatin latent form
# T1 sequence 1: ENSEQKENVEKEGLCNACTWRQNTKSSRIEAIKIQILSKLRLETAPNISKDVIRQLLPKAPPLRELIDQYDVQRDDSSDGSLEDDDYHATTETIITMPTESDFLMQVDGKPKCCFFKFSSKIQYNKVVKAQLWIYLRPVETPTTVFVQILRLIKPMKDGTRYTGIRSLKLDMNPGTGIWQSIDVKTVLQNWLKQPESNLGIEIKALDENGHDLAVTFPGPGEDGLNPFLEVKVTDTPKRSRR
# T1 sequence 2: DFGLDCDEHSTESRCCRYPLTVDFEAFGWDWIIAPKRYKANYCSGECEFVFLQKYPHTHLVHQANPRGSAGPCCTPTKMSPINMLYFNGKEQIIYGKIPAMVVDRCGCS
# T2: Cynomolgus monkey latent myostatin (cynomolgus monkey, UniProt Q95J86 25-266; Q95J86 267-375)
# T2 construct: Latent form = complex of two propeptides and the mature dimer; also called Cyno latent myostatin
# T2 sequence 1: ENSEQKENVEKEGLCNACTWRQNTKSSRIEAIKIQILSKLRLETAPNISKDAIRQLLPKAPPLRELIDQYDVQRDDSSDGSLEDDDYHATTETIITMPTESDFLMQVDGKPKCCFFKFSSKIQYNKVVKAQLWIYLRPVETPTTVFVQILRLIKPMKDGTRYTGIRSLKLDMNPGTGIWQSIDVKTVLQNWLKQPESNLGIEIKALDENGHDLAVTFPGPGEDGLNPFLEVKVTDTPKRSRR
# T2 sequence 2: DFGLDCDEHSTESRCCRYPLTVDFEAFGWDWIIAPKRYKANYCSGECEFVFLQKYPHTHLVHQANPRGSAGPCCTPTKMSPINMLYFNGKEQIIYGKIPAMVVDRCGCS
# T3: Mouse latent myostatin (mouse, UniProt O08689 26-267; O08689 268-376)
# T3 construct: Latent form = complex of two propeptides and the mature dimer
# T3 sequence 1: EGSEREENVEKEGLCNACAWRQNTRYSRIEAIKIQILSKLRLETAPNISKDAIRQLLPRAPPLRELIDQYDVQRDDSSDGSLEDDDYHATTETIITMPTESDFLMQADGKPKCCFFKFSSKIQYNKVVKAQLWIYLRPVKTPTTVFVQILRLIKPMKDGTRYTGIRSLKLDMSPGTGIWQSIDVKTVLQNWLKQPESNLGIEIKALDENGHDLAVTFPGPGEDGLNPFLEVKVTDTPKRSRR
# T3 sequence 2: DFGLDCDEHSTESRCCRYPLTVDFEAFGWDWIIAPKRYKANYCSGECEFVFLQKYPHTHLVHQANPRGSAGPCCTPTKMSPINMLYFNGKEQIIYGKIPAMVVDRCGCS
# T4: Human latent myostatin (human, UniProt O14793 25-266; O14793 267-375)
# T4 construct: Biotinylated in the ELISAs; also called human myostatin latent form
# T4 sequence 1: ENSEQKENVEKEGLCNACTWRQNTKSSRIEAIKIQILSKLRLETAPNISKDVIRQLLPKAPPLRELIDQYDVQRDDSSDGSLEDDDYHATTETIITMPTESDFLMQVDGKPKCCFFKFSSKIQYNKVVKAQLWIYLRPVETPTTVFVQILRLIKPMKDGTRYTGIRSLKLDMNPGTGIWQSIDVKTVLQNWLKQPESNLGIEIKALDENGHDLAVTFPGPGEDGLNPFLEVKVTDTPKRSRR
# T4 sequence 2: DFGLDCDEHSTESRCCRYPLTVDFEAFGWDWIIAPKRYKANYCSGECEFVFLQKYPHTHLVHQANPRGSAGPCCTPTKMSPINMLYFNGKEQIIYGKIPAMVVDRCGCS
# Legend:
# Human latent myostatin [1] = molecular target: T1, Human latent myostatin; assay: SPR (BIACORE T200) 37C, pH 7.4, antibody captured by ProA/G
# Method: (§1) ProA/G (Pierce) was immobilized onto all flow cells of a CM4 chip using an amine coupling kit (GE Healthcare). All antibodies and analytes were prepared in ACES pH7.4 or pH5.8 buffer containing 20 mM ACES, 150 mM NaCl, 1.2 mM CaCl₂, 0.05% TWEEN®) 20, 0.005% NaN₃. […] Human, cyno, and mouse latent myostatin was injected at 3.125 to 50 nM prepared by two-fold serial dilution, followed by dissociation. The sensor surface was regenerated each cycle with 10 mM Glycine HCl pH1.5. Binding affinity was determined by processing and fitting the data to a 1:1 binding model using BIACORE® T200 Evaluation software, version 2.0 (GE Healthcare).
# [2] = molecular target: T2, Cynomolgus monkey latent myostatin; assay: as above
# Method: as §1
# Mouse latent myostatin [3] = molecular target: T3, Mouse latent myostatin; assay: as above
# Method: as §1
# Human latent myostatin [4] = molecular target: T1, Human latent myostatin; assay: SPR (BIACORE T200) 37C, pH 5.8, antibody captured by ProA/G
# Method: as §1
# [5] = molecular target: T2, Cynomolgus monkey latent myostatin; assay: as above
# Method: as §1
# Mouse latent myostatin [6] = molecular target: T3, Mouse latent myostatin; assay: as above
# Method: as §1
# Human latent myostatin [7] = molecular target: T1, Human latent myostatin; assay: SPR 37C; KD pH 5.8 / KD pH 7.4
# Method: as §1
# [8] = molecular target: T2, Cynomolgus monkey latent myostatin; assay: SPR 37C; KD pH 5.8 / KD pH 7.4
# Method: as §1
# Mouse latent myostatin [9] = molecular target: T3, Mouse latent myostatin; assay: SPR 37C; KD pH 5.8 / KD pH 7.4
# Method: as §1
# Human latent myostatin [10] = molecular target: T4, Human latent myostatin; assay: SPR (BIACORE T200), 37 C, pH7.4, 1:1 fit; title prints avidity, by the text the affinity condition (capture 18.5 RU)
# Method: (§2) The kinetic parameters of anti-latent myostatin antibodies against human, cynomolgus monkey (cyno), and mouse latent myostatin were assessed at 37° C. at pH7.4 using a BIACORE® T200 instrument (GE Healthcare). ProA/G (Pierce) was immobilized onto all flow cells of a CM4 chip using amine coupling kit (GE Healthcare). Anti-latent myostatin antibody and analytes were prepared in ACES pH7.4 (20 mM ACES, 150 mM NaCl, 1.2 mM CaCl₂), 0.05% TWEEN® 20, 0.005% NaN₃). […] Then human, cyno, or mouse latent myostatin was injected at 3.125 to 50 nM prepared by two-fold serial dilution, followed by dissociation. The sensor surface was regenerated with 25 mM NaOH. Kinetic parameters were determined by processing and fitting the data to a 1:1 binding model using BIACORE® T200 Evaluation software, version 2.0 (GE Healthcare).
# (§3) All experimental settings were the same as in Example 7, except that measurements were also performed in ACES pH5.8 buffer in addition to ACES pH7.4 condition. Some antibodies were only measured against human latent myostatin. Antibody capture level was aimed at 185 RU and 18.5 RU, for avidity and affinity assay, respectively. Kinetic parameters were determined using 1:1 Binding fitting using BIACORE® T200 Evaluation software, version 2.0 (GE Healthcare).
# Human latent myostatin [11] = molecular target: T4, Human latent myostatin; assay: SPR (BIACORE T200), 37 C, pH7.4, avidity condition (capture 185 RU), 1:1 fit; pH 7.4
# Method: as §2, §3
# Human latent myostatin [12] = molecular target: T4, Human latent myostatin; assay: SPR (BIACORE T200), 37 C, pH5.8, avidity condition (capture 185 RU), 1:1 fit; pH 5.8
# Method: as §2, §3
Binder,Kd (Human latent myostatin [1]),Kd [2],Kd (Mouse latent myostatin [3]),Kd (Human latent myostatin [4]),Kd [5],Kd (Mouse latent myostatin [6]),ratio of KD at pH 5.8/pH 7.4 (Human latent myostatin [7]),ratio of KD at pH 5.8/pH 7.4 [8],ratio of KD at pH 5.8/pH 7.4 (Mouse latent myostatin [9]),Kd (Human latent myostatin [10]),koff (Human latent myostatin [10]),kon (Human latent myostatin [10]),Kd (Human latent myostatin [11]),koff (Human latent myostatin [11]),kon (Human latent myostatin [11]),Kd (Human latent myostatin [12]),koff (Human latent myostatin [12]),kon (Human latent myostatin [12])
"MS_M103205H1057-SG1/M103202L889-SK1 (antibody, human IgG1, kappa, V domains shown, also called MS1032LO12-SG1) VH: QVTLKESGPVLVKPTETLTLTCTVSGIDLSHTDISWVRQAPGKGLEWVGIISYAGSKYKASWAKGRLTISKDTSKNQVVLTMTNMDPVDTATYYCARGVPAYSHGGDLWGQGTLVTVSS VL: DIVMTQSPATLSLSPGERATLSCTSSQSVYHANWLSWFQQKPGQPPKLLIYWASTLAYGVPSRFSGSGSGTDFTLTISSLQPEDAATYYCAGGYGGGRYAFGQGTKVEIKR",0.407 nM,0.492 nM,0.413 nM,84.9 nM,35.8 nM,24.8 nM,209,73,60,–,–,–,–,–,–,–,–,–
"MS_M103205H781-SG1/M103202L813-SK1 (antibody, human IgG1, kappa, V domains shown, also called MS1032LO03-SG1; MSLO-03) VH: QVTLKESGPVLVKPTETLTLTCTVSGIDLSHTDISWVRQAPGKGLEWVGIISYAGSTYYMSWAKGRLTISKDTSKNQVVLTMTNMDPVDTATYYCARGVPAYSHGGDLWGQGTLVTVSS VL: DIVMTQSPATLSLSPGERATLSCQTSQSVYHDNWLSWFQQKPGQPPKLLIYWASTLASGVPSRFSGSGSGTDFTLTISSLQPEDAATYYCAGGYGGGRYAFGQGTKVEIKR",–,–,–,–,–,–,–,–,–,1.08 nM,0.00117 s⁻¹,1.08e+06 M⁻¹ s⁻¹,0.196 nM,0.000192 s⁻¹,981000 M⁻¹ s⁻¹,9.66 nM,0.00524 s⁻¹,543000 M⁻¹ s⁻¹

# Continued, values first:
Kd (Human latent myostatin [1]),Kd [2],Kd (Mouse latent myostatin [3]),Kd (Human latent myostatin [4]),Kd [5],Kd (Mouse latent myostatin [6]),ratio of KD at pH 5.8/pH 7.4 (Human latent myostatin [7]),ratio of KD at pH 5.8/pH 7.4 [8],ratio of KD at pH 5.8/pH 7.4 (Mouse latent myostatin [9]),Kd (Human latent myostatin [10]),koff (Human latent myostatin [10]),kon (Human latent myostatin [10]),Kd (Human latent myostatin [11]),koff (Human latent myostatin [11]),kon (Human latent myostatin [11]),Kd (Human latent myostatin [12]),koff (Human latent myostatin [12]),kon (Human latent myostatin [12]),Binder
0.26 nM,0.299 nM,0.266 nM,16.1 nM,7.71 nM,6.4 nM,62,26,24,–,–,–,–,–,–,–,–,–,"MS_M103245H1233-SG1/M103202L1045-SK1 (antibody, human IgG1, kappa, V domains shown, also called MS1032LO23-SG1) VH: QVTLKESGPVLVKPTETLTLTCKVSGIDLSHEDISWVRQAPGKGLEWVSIISYAGSTYYASWAKGRLTISKDTSKNQVVLTMTNMDPVDTATYYCARGVPAYSHGGDLWGQGTLVTVSS VL: DIVMTQSPATLSLSPGERATLSCTTSQSVYHENWLSWFQQKPGQPPKLLIYWASTLAYGVPSRFSGSGSGTDFTLTISSLQPEDAATYYCAGGYGGGRYAFGQGTKVEIKR"
0.351 nM,0.419 nM,0.334 nM,43.8 nM,16.1 nM,10.9 nM,125,38,35,–,–,–,–,–,–,–,–,–,"MS_M103205H1046-SG1/M103202L889-SK1 (antibody, human IgG1, kappa, V domains shown, also called MS1032LO10-SG1) VH: QVTLKESGPVLVKPTETLTLTCTVSGIDLSHTDISWVRQAPGKGLEWVGIISYAGKTYYASWAKKRLTISKDTSKNQVVLTMTNMDPVDTATYYCARGVPAYSHGGDLWGQGTLVTVSS VL: DIVMTQSPATLSLSPGERATLSCTSSQSVYHANWLSWFQQKPGQPPKLLIYWASTLAYGVPSRFSGSGSGTDFTLTISSLQPEDAATYYCAGGYGGGRYAFGQGTKVEIKR"
